Data from PMC10466926 (The Journal of Biological Chemistry, 2023).

How the values were obtained:
Settings in all cases: both partners purified
IsdH NEAT3 [1] = target: T1, IsdH NEAT3 (Staphylococcus aureus (Mu50 for the …, UniProt Q931P4)); experiment: SPR
T1 construct: also called NEAT3 domain (no linker)

IsdH linker-NEAT3 [2] = target: T2, IsdH linker-NEAT3 (Staphylococcus aureus Mu50, UniProt Q931P4); experiment: ITC
IsdH NEAT3 [3] = target: T1, IsdH NEAT3; experiment: ITC
IsdH linker-NEAT3 [4] = target: T2, IsdH linker-NEAT3; experiment: SPR
IsdH NEAT3 [5] = target: T1, IsdH NEAT3; experiment: SPR; remark: listed apart in the source
IsdB linker-NEAT2 [6] = target: T3, IsdB linker-NEAT2 (Staphylococcus aureus Mu50 (by deposit …)); experiment: ITC
IsdB linker-NEAT2 [7] = target: T3, IsdB linker-NEAT2; experiment: SPR
IsdH linker-NEAT3 [8] = target: T2, IsdH linker-NEAT3; experiment: ITC; remark: listed apart in the source
IsdH linker-NEAT3 [9] = target: T2, IsdH linker-NEAT3; experiment: SPR; remark: listed apart in the source
IsdH linker-NEAT3 [10] = target: T2, IsdH linker-NEAT3; experiment: SPR; remark: listed apart in the source

Binder	dH (IsdH linker-NEAT3 [8]) [kcal/mol]	stoichiometry N (IsdH linker-NEAT3 [8])	Kd (IsdH linker-NEAT3 [9]) [nM]	koff (IsdH linker-NEAT3 [9]) [s⁻¹]	kon (IsdH linker-NEAT3 [9]) [M⁻¹ s⁻¹]	other results
VHH6 (VHH, also called WT VHH6; WT; source: E. coli BL21(DE3), pRA2 vector with PelB signal peptide, purified (Ni-NTA, SEC)) VHH: ELQLVESGGGLVQPGGSLSLSCEVSGFSFDDVDNFIIAWFRQAPGKEREGVSFLRKYDMSTYYAESVKGRFTISSDNARDTVYLQMTNLKPEDTAVYYCALDREGFVFEQGMDFWGKGTQVTVSS						Kd (IsdH NEAT3 [1]): 638 nM; dH (IsdH linker-NEAT3 [2]): -17.1 kcal/mol; stoichiometry N (IsdH linker-NEAT3 [2]): 1.1 mol:mol; dH (IsdH NEAT3 [3]): -11.9 kcal/mol; stoichiometry N (IsdH NEAT3 [3]): 0.9 mol:mol; Kd (IsdH linker-NEAT3 [4]): 0.53 nM; koff (IsdH linker-NEAT3 [4]): 4.2e-05 s⁻¹; kon (IsdH linker-NEAT3 [4]): 81000 M⁻¹ s⁻¹; Kd (IsdH NEAT3 [5]): 637 nM; koff (IsdH NEAT3 [5]): 0.0235 s⁻¹; kon (IsdH NEAT3 [5]): 37000 M⁻¹ s⁻¹; dH (IsdB linker-NEAT2 [6]): -24.2 kcal/mol; stoichiometry N (IsdB linker-NEAT2 [6]): 0.8 mol:mol; Kd (IsdB linker-NEAT2 [7]): 0.25 nM; koff (IsdB linker-NEAT2 [7]): 4e-05 s⁻¹; kon (IsdB linker-NEAT2 [7]): 160000 M⁻¹ s⁻¹
VHH6 V107A (VHH, source: E. coli BL21(DE3), purified as the WT (Ni-NTA, SEC)) VHH: ELQLVESGGGLVQPGGSLSLSCEVSGFSFDDVDNFIIAWFRQAPGKEREGVSFLRKYDMSTYYAESVKGRFTISSDNARDTVYLQMTNLKPEDTAVYYCALDREGFAFEQGMDFWGKGTQVTVSS	-15.9	0.96 mol:mol	9.7	0.00105	109000	
VHH6 F108A (VHH, source: E. coli BL21(DE3), purified as the WT (Ni-NTA, SEC)) VHH: ELQLVESGGGLVQPGGSLSLSCEVSGFSFDDVDNFIIAWFRQAPGKEREGVSFLRKYDMSTYYAESVKGRFTISSDNARDTVYLQMTNLKPEDTAVYYCALDREGFVAEQGMDFWGKGTQVTVSS	-19.3	0.97 mol:mol	2.6	0.00049	189000	
VHH35 (VHH, also called VHH number 35; hit clone 35; source: E. coli BL21(DE3), pRA2 vector with PelB signal peptide, purified (Ni-NTA, SEC)) VHH: QLQLVESGGGLVQPGGSLSLSCEVSGFSFDDVDNFIIAWFRQAPGKEREGVSFLRKYDMSTYYAESVKGRFTISSDNARDTVYLQMTNLKPEDTAVYYCALDREGFVFEQGMDFWGKGTQVTVSS						dH (IsdH linker-NEAT3 [2]): -16 kcal/mol; stoichiometry N (IsdH linker-NEAT3 [2]): 0.98 mol:mol; dH (IsdH NEAT3 [3]): -17 kcal/mol; stoichiometry N (IsdH NEAT3 [3]): 1.02 mol:mol; Kd (IsdH linker-NEAT3 [4]): 0.53 nM; koff (IsdH linker-NEAT3 [4]): 3.5e-05 s⁻¹; kon (IsdH linker-NEAT3 [4]): 66000 M⁻¹ s⁻¹; Kd (IsdH NEAT3 [5]): 237 nM; koff (IsdH NEAT3 [5]): 0.00918 s⁻¹; kon (IsdH NEAT3 [5]): 39000 M⁻¹ s⁻¹
VHH6 Y57A (VHH, source: E. coli BL21(DE3), purified as the WT (Ni-NTA, SEC)) VHH: ELQLVESGGGLVQPGGSLSLSCEVSGFSFDDVDNFIIAWFRQAPGKEREGVSFLRKADMSTYYAESVKGRFTISSDNARDTVYLQMTNLKPEDTAVYYCALDREGFVFEQGMDFWGKGTQVTVSS	-9.7	1.03 mol:mol	114	0.0144	126000	koff (IsdH linker-NEAT3 [10]): 144 s⁻¹
VHH6 R55A (VHH, source: E. coli BL21(DE3), purified as the WT (Ni-NTA, SEC)) VHH: ELQLVESGGGLVQPGGSLSLSCEVSGFSFDDVDNFIIAWFRQAPGKEREGVSFLAKYDMSTYYAESVKGRFTISSDNARDTVYLQMTNLKPEDTAVYYCALDREGFVFEQGMDFWGKGTQVTVSS	-15.9	0.94 mol:mol	25.4	0.00855	284000	
VHH6 Y62A (VHH, source: E. coli BL21(DE3), purified as the WT (Ni-NTA, SEC)) VHH: ELQLVESGGGLVQPGGSLSLSCEVSGFSFDDVDNFIIAWFRQAPGKEREGVSFLRKYDMSTAYAESVKGRFTISSDNARDTVYLQMTNLKPEDTAVYYCALDREGFVFEQGMDFWGKGTQVTVSS	-11.1	0.93 mol:mol	45.4	0.00207	46000	
VHH6 F106A (VHH, source: E. coli BL21(DE3), purified as the WT (Ni-NTA, SEC)) VHH: ELQLVESGGGLVQPGGSLSLSCEVSGFSFDDVDNFIIAWFRQAPGKEREGVSFLRKYDMSTYYAESVKGRFTISSDNARDTVYLQMTNLKPEDTAVYYCALDREGAVFEQGMDFWGKGTQVTVSS	-16.6	1.01 mol:mol	3.1	0.00031	99000	
VHH6 D33A (VHH, source: E. coli BL21(DE3), purified as the WT (Ni-NTA, SEC)) VHH: ELQLVESGGGLVQPGGSLSLSCEVSGFSFDDVANFIIAWFRQAPGKEREGVSFLRKYDMSTYYAESVKGRFTISSDNARDTVYLQMTNLKPEDTAVYYCALDREGFVFEQGMDFWGKGTQVTVSS	-14.7	1.01 mol:mol	2.08	0.00013	62000	
VHH6 E104A (VHH, source: E. coli BL21(DE3), purified as the WT (Ni-NTA, SEC)) VHH: ELQLVESGGGLVQPGGSLSLSCEVSGFSFDDVDNFIIAWFRQAPGKEREGVSFLRKYDMSTYYAESVKGRFTISSDNARDTVYLQMTNLKPEDTAVYYCALDRAGFVFEQGMDFWGKGTQVTVSS	-13.6	0.99 mol:mol	6.4	0.00142	151000	
